Test results taken from patent US20040048377A1 (published 2004).

B1: Nkx6.1 (full-length, rNkx6.1) (other, rat, UniProt O35762 1-365, looked up)
chain: MLAVGAMEGPRQSAFLLSSPPLAALHSMAEMKTPLYPAAYPPLPTGPPSSSSSSSSSSSPSPPLGAHNPGGLKPPAAGGLSSLGSPPQQLSAATPHGINDILSRPSMPVASGAALPSASPSGSSSSSSSSASATSASAAAAAAAAAAAAAASSPAGLLAGLPRFSSLSPPPPPPGLYFSPSAAAVAAVGRYPKPLAELPGRTPIFWPGVMQSPPWRDARLACTPHQGSILLDKDGKRKHTRPTFSGQQIFALEKTFEQTKYLAGPERARLAYSLGMTESQVKVWFQNRRTKWRKKHAAEMATAKKKQDSETERLKGTSENEEDDDDYNKPLDPNSDDEKITQLLKKHKSSGGSLLLHASEAEGSS
notes: mature; Full-length protein made in TNT rabbit reticulocyte lysate; 35S-labelled in the GST co-precipitation, immobilised on antibody-proteinA-sepharose in the immuno-precipitation
B2: mouse Grg4 (other, UniProt Q62441 1-773, looked up)
chain: MIRDLSKMYPQTRHPAPHQPAQPFKFTISESCDRIKEEFQFLQAQYHSLKLECEKLASEKTEMQRHYVMYYEMSYGLNIEMHKQAEIVKRLNAICAQVIPFLSQEHQQQVVQAVERAKQVTMAELNAIIGQQLQAQHLSHGHGLPVPLTPHPSGLQPPAIPPIGSSAGLLALSSALGGQSHLPIKDEKKHHDNDHQRDRDSIKSSSVSPSASFRGSEKHRNSTDYSSESKKQKTEEKEIAARYDSDGEKSDDNLVVDVSNEDPSSPRGSPAHSPRENGLDKTRLLKKDAPISPASVASSSSTPSSKSKELSLNEKSTTPVSKSNTPTPRTDAPTPGSNSTPGLRPVPGKPPGVDPLASSLRTPMAVPCPYPTPFGIVPHAGMNGELTSPGAAYAGLHNISPQMSAAAAAAAAAAAYGRSPVVGFDPHHHMRVPAIPPNLTGIPGGKPAYSFHVSADGQMQPVPFPPDALIGPGIPRHARQINTLNHGEVVCAVTISNPTRHVYTGGKGCVKVWDISHPGNKSPVSQLDCLNRDNYIRSCRLLPDGRTLIVGGEASTLSIWDLAAPTPRIKAELTSSAPACYALAISPDSKVCFSCCSDGNIAVWDLHNQTLVRQFQGHTDGASCIDISNDGTKLWTGGLDNTVRSWDLREGRQLQQHDFTSQIFSLGYCPTGEWLAVGMENSNVEVLHVTKPDKYQLHLHESCVLSLKFAHCGKWFVSTGKDNLLNAWRTPYGASIFQSKESSSVLSCDISVDDKYIVTGSGDKKATVYEVIY
notes: 35S-labelled, made in TNT rabbit reticulocyte lysate for the immuno-precipitation; expressed from a vector in COS-7 cells in the reporter assays; also called mGrg4

Tests used:
mouse Grg4 = molecular target: B2; test: immuno-precipitation, 35S-labelled Grg4, Nkx protein on antibody-proteinA-sepharose
Method: (§1) Immuno-precipitation (IP) assays using rabbit Nkx2.2 (Ericson et al., 1997) and Nkx6.1 antibodies (Jensen et al., 1996) were performed as described by Current protocols 2nd ed. ³⁵S-labelled mGrg4 was synthesized using the TNT coupled rabbit reticulocyte lysate. Electric mobility shift assays were performed as described (Jorgensen et al., 1999). Briefly, the isolated homeodomains of Nkx6.1, Nkx6.2, Nkx2.2 and Nkx2.9HD were synthesized using the TNT coupled rabbit reticulocyte lysate and tested for their binding specificity in vitro using ³²P-labelled double stranded DNA oligonucleotides containing defined Nkx6.1 (Jorgensen et al., 1999) or Nkx2.1 binding sites (Damante et al., 1996).
(§2) An immuno-precipitation assay was then used to test if mammalian Gro/TLE family members could also bind to Nkx proteins, and if the TN domain is required for this interaction. […] Carboxy-terminal directed antibodies that recognise both full-length proteins as well as truncated variants lacking the TN domain were used (Ericson et al., 1997; Jensen et al., 1996). […]
(§3) Deletion of the TN domain in Nkx2.2 and Nkx6.1 reduced the interaction with Grg4 (9-fold for Nkx2.2ATN and 5-fold for Nkx6.1ΔTN, compared to the full-length proteins). […] No significant interaction was detected between Grg4 and antibody-proteinA-sepharose complexes.

[1] = molecular target: T1, Nkx2.2ΔTN (Nkx2.2 with the TN domain deleted, Δaa 2-26) (chick); test: as above
T1 construct: range 1-1;range 27-C-terminus; Deletion construct, immobilised on antibody-proteinA-sepharose in the immuno-precipitation; also called cNkx2.2^?TN; NKx2.2^?TN
Method: as §1, §2, §3

Binder	binding result (mouse Grg4)	fold reduction of the interaction with Grg4 compared to the full-length protein [1] [fold]
B1	binds	–
B2	–	9
